# According to patent US20250034222A1, “IL-38 VARIANTS” (Monash University, priority 2021, published 2025):
# Experiment: Nano differential scanning fluorimetry of IL-38-Fc variants (apparent melting temperature)
# Format: physicochemical
# Conditions: N-terminal IL-38-Fc variants, knobs-into-holes IgG1-Fc, IL-38 (C70V, C37S, C38R, C43A, C67A, C123S)
# From the text: Indicated IL-38 chains differing in their N-terminus were expressed and purified from Expi293 cells. The relative purification yield is indicated between the N-terminal variants. The stability of the purified product was monitored by nano differential scanning fluorimetry and is expressed as the apparent melting temperature (Tm). N-terminal variants (except 2-152) were trialled as “knobs-into-holes” IgG1-Fc fusions utilising the IL-38 (C70V, C37S, C38R, C43A, C67A, C123S) sequence. The 2-152 N-terminal variant was trialled as “knobs-into-holes” IgG1-Fc fusions utilising the IL-38 (C2A, C70V, C37S, C38R, C43A, C67A, C123S) sequence.
# Indicated linker variants were expressed and purified from Expi293 cells. The relative purification yield is indicated between the linker variants. The stability of the purified product was monitored by nano differential scanning fluorimetry and is expressed as the apparent melting temperature (Tm). […] All N-terminal linker variants were trialled as “knobs-into-holes” IgG1-Fc fusions utilising the IL-38 (C70V, C37S, C38R, C43A, C67A, C123S) sequence.
substance,measurement,value
"3-152: Knobs-into-holes IgG1-Fc fusion, IL-38 chain residues 3-152 (C70V, C37S, C38R, C43A, C67A, C123S); probably SEQ ID NO: 25/26","Stability (apparent melting temperature, Tm)",66.0 °C
